From patent US20190284240A1 (OHIO STATE INNOVATION FOUNDATION, published 2019) come the findings set out here.

Square brackets hold non-standard residues; d marks the D form. Pmp = N[C@@H](Cc1ccc(CP(=O)(O)O)cc1)C(=O)O; pY = N[C@@H](Cc1ccc(OP(=O)(O)O)cc1)C(=O)O; 2Nal = N[C@@H](Cc1ccc2ccccc2c1)C(=O)O

In experiment [1] the target is T1, Grb2 SH2 domain (UniProt P62993 60-152, limits assumed).
T1 construct: domain: SH2 domain
The experiment in a line: fluorescence anisotropy, direct binding of the FAM-labeled ligand to the Grb2 SH2 domain.

Experiment [2] has as its target T2, Kelch-like ECH-associated protein-1 (Keap1) (UniProt Q14145 321-609, limits assumed). Briefly: fluorescence anisotropy competition assay, displacement of the fluorescent Nrf2 peptide from Keap1. As to the method: (§1) The percentage of inhibition was calculated from the fluorescence anisotropy decrease by using equation
(§2) and plotted against the inhibitor concentration.
A general note: In fluorescence polarisation assays a small probe gives low polarisation when free and higher when bound to something large.

For experiment [3], the target named is T2, Kelch-like ECH-associated protein-1 …. Briefly: fluorescence anisotropy competition assay; reference BH15. The method, then: as §1, §2
Experiment [4] deals with T1, Grb2 SH2 domain. Briefly: FP-based competition assay, unlabeled peptide against the FAM-labeled reporter ligand on the Grb2 SH2 domain.
The target in experiment [5] is T2, Kelch-like ECH-associated protein-1 …. Briefly: fluorescence anisotropy competition assay; reference BH13. The method, then: as §1, §2
Experiment [6] shares this target. Briefly: fluorescence anisotropy competition assay; reference BH17. As to the method:
as §1, §2

Experiment [7] concerns the target T1, Grb2 SH2 domain. The experiment in a line: binding to the Grb2 SH2 domain; reference BH23.
Experiment [8] concerns the target T1, Grb2 SH2 domain. The experiment in a line: binding to the Grb2 SH2 domain; assay not named, presumably the same FP competition assay.
Experiment [9] addresses T2, Kelch-like ECH-associated protein-1 …. The experiment in a line: fluorescence anisotropy competition assay; reference peptide not named (34-fold matches BH17, […] nM). The method, then:
as §1, §2

T1 sequence (P62993 60-152 limits assumed): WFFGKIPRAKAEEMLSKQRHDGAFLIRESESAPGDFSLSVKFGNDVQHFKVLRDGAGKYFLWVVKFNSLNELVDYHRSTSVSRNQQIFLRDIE
T2 sequence (Q14145 321-609 limits assumed): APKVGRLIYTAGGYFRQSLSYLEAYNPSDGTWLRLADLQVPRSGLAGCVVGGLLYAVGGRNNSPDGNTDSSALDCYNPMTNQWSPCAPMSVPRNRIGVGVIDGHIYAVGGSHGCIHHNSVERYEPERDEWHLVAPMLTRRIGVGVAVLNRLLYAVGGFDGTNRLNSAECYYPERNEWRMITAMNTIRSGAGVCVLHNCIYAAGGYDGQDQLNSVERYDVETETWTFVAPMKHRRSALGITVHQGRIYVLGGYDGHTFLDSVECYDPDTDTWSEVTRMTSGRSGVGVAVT

As usually defined, the Kd is the equilibrium constant for the complex coming apart. A high value points to weaker binding. cyclo(AApYVNFFQ)-β-Ala-K(FAM) (peptide) registered a Kd with Grb2 SH2 domain [1] of 0.092 µM.

B1: BH16 (peptide)
peptide: cyclo(FF[2Nal][dR][dP]PRRFLNAETGE)
SMILES: CC(C)C[C@@H]1NC(=O)[C@H](Cc2ccccc2)NC(=O)[C@H](CCCNC(=N)N)NC(=O)[C@H](CCCNC(=N)N)NC(=O)[C@@H]2CCCN2C(=O)[C@H]2CCCN2C(=O)[C@@H](CCCNC(=N)N)NC(=O)[C@H](Cc2ccc3ccccc3c2)NC(=O)[C@H](Cc2ccccc2)NC(=O)[C@H](Cc2ccccc2)NC(=O)[C@H](CCC(=O)O)NC(=O)CNC(=O)[C@H]([C@@H](C)O)NC(=O)[C@H](CCC(=O)O)NC(=O)[C@H](C)NC(=O)[C@H](CC(N)=O)NC1=O
notes: also called cyclo(F-F-Φ-r-p-P-R-R-F-L-N-A-E-T-G-E)
In general, IC50 refers to the concentration needed to halve the response being measured. A higher IC50 goes with a need for much substance. Consider B1, for which, in experiment [2], the IC50 came out at 1.47 µM. For the same molecule, the “fold decrease in affinity vs BH15” value in experiment [3] was about 10 fold.

B2: BH25 (peptide)
peptide: cyclo(FA[dA][dP]PRR[pY]VN)
SMILES: CC(C)[C@@H]1NC(=O)[C@H](Cc2ccc(OP(=O)(O)O)cc2)NC(=O)[C@H](CCCNC(=N)N)NC(=O)[C@H](CCCNC(=N)N)NC(=O)[C@@H]2CCCN2C(=O)[C@H]2CCCN2C(=O)[C@@H](C)NC(=O)[C@H](C)NC(=O)[C@H](Cc2ccccc2)NC(=O)[C@H](CC(N)=O)NC1=O
notes: Control peptide: the Nal-arg of BH23 is replaced with Ala-ala; also called cyclo[F-A-a-p-P-R-R-pY-V-N); negative control peptide BH25
In the experiment with Grb2 SH2 domain [4], B2 displayed an IC50 of 0.1 µM.

B3: BH23 (peptide)
peptide: cyclo(F[2Nal][dR][dP]PRR[pY]VN)
notes: also called cyclo(pY-V-N-F-Φ-r-p-P-R-R); cyclo[F-Φ-r-p-P-R-R-pY-V-N)
B3 yielded an IC50 with Grb2 SH2 domain [4] of 0.4 µM.

B4: BH14 (peptide)
peptide: cyclo(FF[2Nal][dR][dP]PRRFQLNAETGE)
SMILES: CC(C)C[C@@H]1NC(=O)[C@H](CCC(N)=O)NC(=O)[C@H](Cc2ccccc2)NC(=O)[C@H](CCCNC(=N)N)NC(=O)[C@H](CCCNC(=N)N)NC(=O)[C@@H]2CCCN2C(=O)[C@H]2CCCN2C(=O)[C@@H](CCCNC(=N)N)NC(=O)[C@H](Cc2ccc3ccccc3c2)NC(=O)[C@H](Cc2ccccc2)NC(=O)[C@H](Cc2ccccc2)NC(=O)[C@H](CCC(=O)O)NC(=O)CNC(=O)[C@H]([C@@H](C)O)NC(=O)[C@H](CCC(=O)O)NC(=O)[C@H](C)NC(=O)[C@H](CC(N)=O)NC1=O
notes: also called cyclo(F-F-Φ-r-p-P-R-R-F-Q-L-N-A-E-T-G-E)
In [2], B4 returned an IC50 of 1.4 µM. The “fold decrease in affinity vs BH13” value in experiment [5] was about 10 fold.

B5: BH18 (peptide)
peptide: cyclo(F[2Nal][dR][dP]PRRFLNAETGE)
SMILES: CC(C)C[C@@H]1NC(=O)[C@H](Cc2ccccc2)NC(=O)[C@H](CCCNC(=N)N)NC(=O)[C@H](CCCNC(=N)N)NC(=O)[C@@H]2CCCN2C(=O)[C@H]2CCCN2C(=O)[C@@H](CCCNC(=N)N)NC(=O)[C@H](Cc2ccc3ccccc3c2)NC(=O)[C@H](Cc2ccccc2)NC(=O)[C@H](CCC(=O)O)NC(=O)CNC(=O)[C@H]([C@@H](C)O)NC(=O)[C@H](CCC(=O)O)NC(=O)[C@H](C)NC(=O)[C@H](CC(N)=O)NC1=O
notes: also called cyclo(F-Φ-r-p-P-R-R-F-L-N-A-E-T-G-E)
B5 had an IC50 in experiment [2] of 1.4 µM. Also, the “fold decrease in affinity vs BH17” value in experiment [6] was about 10 fold.

B6: BH13 (peptide)
peptide: cyclo(FF[2Nal][dR][dP]PRRFQLDPETGE)
SMILES: CC(C)C[C@@H]1NC(=O)[C@H](CCC(N)=O)NC(=O)[C@H](Cc2ccccc2)NC(=O)[C@H](CCCNC(=N)N)NC(=O)[C@H](CCCNC(=N)N)NC(=O)[C@@H]2CCCN2C(=O)[C@H]2CCCN2C(=O)[C@@H](CCCNC(=N)N)NC(=O)[C@H](Cc2ccc3ccccc3c2)NC(=O)[C@H](Cc2ccccc2)NC(=O)[C@H](Cc2ccccc2)NC(=O)[C@H](CCC(=O)O)NC(=O)CNC(=O)[C@H]([C@@H](C)O)NC(=O)[C@H](CCC(=O)O)NC(=O)[C@@H]2CCCN2C(=O)[C@H](CC(=O)O)NC1=O
notes: The underlining is not visible, so the entry may be only part of the peptide; also called cyclo(F-F-Φ-r-p-P-R-R-F-Q-L-D-P-E-T-G-E)
In the case of B6, the IC50 in experiment [2] was 0.153 µM.

B7: BH26 (peptide)
peptide: cyclo(F[2Nal][dR][dP]PRR[Pmp]VN)
SMILES: CC(C)[C@@H]1NC(=O)[C@H](Cc2ccc(CP(=O)(O)O)cc2)NC(=O)[C@H](CCCNC(=N)N)NC(=O)[C@H](CCCNC(=N)N)NC(=O)[C@@H]2CCCN2C(=O)[C@H]2CCCN2C(=O)[C@@H](CCCNC(=N)N)NC(=O)[C@H](Cc2ccc3ccccc3c2)NC(=O)[C@H](Cc2ccccc2)NC(=O)[C@H](CC(N)=O)NC1=O
Take B7: the “fold less potent than BH23” value in the experiment with Grb2 SH2 domain [7] was about 3 fold. The molecule also displayed an IC50 with Grb2 SH2 domain [8] of 1.37 µM.

B8: BH19 (peptide)
peptide: cyclo(F[2Nal][dR][dP]PRRFNAETGE)
SMILES: C[C@@H]1NC(=O)[C@H](CC(N)=O)NC(=O)[C@H](Cc2ccccc2)NC(=O)[C@H](CCCNC(=N)N)NC(=O)[C@H](CCCNC(=N)N)NC(=O)[C@@H]2CCCN2C(=O)[C@H]2CCCN2C(=O)[C@@H](CCCNC(=N)N)NC(=O)[C@H](Cc2ccc3ccccc3c2)NC(=O)[C@H](Cc2ccccc2)NC(=O)[C@H](CCC(=O)O)NC(=O)CNC(=O)[C@H]([C@@H](C)O)NC(=O)[C@H](CCC(=O)O)NC1=O
notes: also called cyclo(F-Φ-r-p-P-R-R-F-N-A-E-T-G-E)
For the molecule B8, the “fold reduction in inhibition potency” value in [9] was found to be 34 fold. Also, the IC50 in [2] turned out to be 5.54 µM.
